These results are taken from the RNAGym collection of RNA variant scans (doi:10.1093/nar/gkz1192).

The labels stand for the following.
B1: CPEB3 Ribozyme (parent)
chain: UAACAGGGGGCCACAGCAGAAGCGUUCACGUCGCAGCCCCUGUCAGAUUCUGGUGAAUCUGCGAAUUCUGCUGUAUAUCUC

In the data set the parent is B1. In words: self-cleavage, relative activity (ratio to wild type); higher = more cleavage; in vitro, sequencing. The method, boiled down:
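Libraries of CPEB3 self-cleaving ribozyme mutants came from rounds of error-prone PCR and carried barcodes, which DNA sequencing matched to variants. In vitro transcription used T7 RNA polymerase at 37°C for 5 hours, with a further 15 min in DNase I before EDTA stopped the reaction; the ribozymes cleaved during both steps. The RNA was reverse transcribed with template switching and sequenced on Illumina. Relative activity is the cleaved/total read fraction of a variant divided by that of the unmutated ribozyme, averaged over three batches with at least 5 reads.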
With UAACAGGGGGCCACAGCAGAAGCGUUCACGUCGCAGCCCCUGUCAGAUUCGGGUGAAUCUGCGAACUCUGCUGUAUAUCUC, the self-cleavage is 0.21.
For UAAUAGGGGGCCACAGCAGAAGCGUUCACGUCGCAGCCCCUGUCAGAUUCUGGCGAAUCUGCGAAUUCUGCUGUAUAUCUC, the self-cleavage is 1.15.
To UAACAGGGGGCCACAGCAGAAGCGUUCACGUCGCAGCCCCUGUCAGCUUCUGGUGAAUUUGCGAAUUCUGCUGUAUAUCUC belongs 0.18; to UAACAGGGGGCCACUGCAGAAGCGUUCACGUCGCACCCCCUGUCAGAUUCUGGUGAAUCUGCGAAUUCUGCUGUAUAUCUC, 0.13; to UAACAGGGGGCCACAGCAGAAGAGUUCACGUCGCAGCCCCUGUCAGAUUCUGGUGAAUCUGCGAAUUCUGCUGUAUACCUC, 0.12.
For UAACAAGGGGCCACAGCAGAAGCGUUCACGUCGCAGCCCCUGUCAGAUUCUGGUGAAUCUGCAAAUUCUGCUGUAUAUCUC, the self-cleavage turned out to be 0.34.
To UAACAGAGGGCCACAGCGGAAGCGUUCACGUCGCAGCCCCUGUCAGAUUCUGGUGAAUCUGCGAAUUCUGCUGUAUAUCUC belongs 0.25; to UAACAGGGGGCCACAGCAGAAGUGUUCACGUCGCAGCCCCUGUCAGAUGCUGGUGAAUCUGCGAAUUCUGCUGUAUAUCUC, 0.41; to UAACAGGGGGCCACAGCAGAAGCGUUCACGUCGCAGCCCCUGUCCGAUUCUGGUGAAUCUGUGAAUUCUGCUGUAUAUCUC, 0.36.
As for UAACAGGGGGCCACAGCAGAAGCGUUCACGUCGCAACCCCUGUCAGAUUCUGGUGAAUCUGCGAAUUCUGCUGUCUAUCUC, the figure is 0.28.
As for UAACAGGGGGCCACAGCAGAAGCGUUCACGUCGCAGCCCCUGUCAGAUUCUGGUGAAUCGGCGAAUUCUACUGUAUAUCUC, the figure is 0.21; as for UAACAGGGGGCCACAGCAGAAGCGUUCUCGUCGCAGCCCCUGUCAGAUUCUGGUGAAUCUGCGAAUUCUGCUGCAUAUCUC, 0.87.
With UAACACGGGGCCACAGCAGAAGCGUUCACGUCGCAGCCCCUGUCAGAUUCUGGUGAAUCUGCGAAUUCUGAUGUAUAUCUC, the self-cleavage came out at 0.21.
To UAACAGGGGGCCUCCGCAGAAGCGUUCACGUCGCAGCCCCUGUCAGAUUCUGGUGAAUCUGCGAAUUCUGCUGUAUAUCUC belongs 0.88.
Turning to UAACAGGGGGCCACAGCACAAGCGUUCACGUCGCAGCCCCUGUCAGAUUCUGGUGAAUCUGCGAAUUCUGCUGUUUAUCUC, the self-cleavage turned out to be 0.29.
To UAACAGGGGGACACAGCAGAAGCGUUCACGUCGCAGCCCCUGUCAGAUUCUGGUGAAUCUGCGAAUUCUGCUGUAUAUCCC belongs 0.5; to UAACGGGGGGCCACAGCAGAAGCGUUCACGUCGCAGCCCCUGUUAGAUUCUGGUGAAUCUGCGAAUUCUGCUGUAUAUCUC, 0.43; to UAACAGGGGGCCACAGCAGAAGCGUUCACGUCGCAGCCCCUGCCAGAUUCUGGUGAAUUUGCGAAUUCUGCUGUAUAUCUC, 0.52.
As to UAACAGGGGGCCUCAGCAGAAGCGCUCACGUCGCAGCCCCUGUCAGAUUCUGGUGAAUCUGCGAAUUCUGCUGUAUAUCUC, the self-cleavage came to 0.28.
For UAGCAGGGGGCCACAGCAGAAGCGUACACGUCGCAGCCCCUGUCAGAUUCUGGUGAAUCUGCGAAUUCUGCUGUAUAUCUC, the self-cleavage is 0.9.
Take UAACAGGGGGCCACAGCAGAAGCCUUCACGUCGCAGCCCCUGUCAGGUUCUGGUGAAUCUGCGAAUUCUGCUGUAUAUCUC: the self-cleavage is 0.48.
With UAACAGGGGGCCACAGCAGAAGCGUUCACGUCGCAGCCCCUGUCAGAUCCUGGUGAAACUGCGAAUUCUGCUGUAUAUCUC, the self-cleavage turned out to be 0.14.
To UAACAGGGGGACACAGCAGAAGCGUCCACGUCGCAGCCCCUGUCAGAUUCUGGUGAAUCUGCGAAUUCUGCUGUAUAUCUC belongs 0.18; to UAACAGGGUGCCACAGCAGAAGCGUUCACGUCGCGGCCCCUGUCAGAUUCUGGUGAAUCUGCGAAUUCUGCUGUAUAUCUC, 0.33.
With UAACAGGGGGCCACAGCAGAAGCGUUCACGCCGCAGCCCCUGUCAGAUUCUGGUGAAUCUGCGAAUUCUGCUGUAUUUCUC, the self-cleavage is 0.86.
For the variant UAACAGGGGGCCACAGCAGAAGCGUUCACGUCGCUGCCCCUGUCAGAUUCUGGUGAAUCUGCGAAUUCUGCUGUAUGUCUC, the self-cleavage is 0.57.
For the variant UAACAGGGGGCCACAGCAGAAGCGUUCACGUCGCUGCCCCUGUCAGAUUCAGGUGAAUCUGCGAAUUCUGCUGUAUAUCUC, the self-cleavage came to 0.56.
To UAACAGGGGGCCACAGCAGAAGCGUUCACGUCGCAGCCCCUGUCAGAUUCUGGUGAAUCUGCGGAUUCUGCUGGAUAUCUC belongs 1.26; to UAACAGGGGGCCACAGCAGAAGCGUUCACGUCGCAGCCCCUGUCCGAUUCUGGUGAAUUUGCGAAUUCUGCUGUAUAUCUC, 0.22; to UAACAGGGGGCCACAGCAGAAGCGUUCACGUCGCAGCCCUUGUCAGAUUCAGGUGAAUCUGCGAAUUCUGCUGUAUAUCUC, 0.84.
As for UUACAGGGGGCGACAGCAGAAGCGUUCACGUCGCAGCCCCUGUCAGAUUCUGGUGAAUCUGCGAAUUCUGCUGUAUAUCUC, the figure is 0.19; as for AAACAGGAGGCCACAGCAGAAGCGUUCACGUCGCAGCCCCUGUCAGAUUCUGGUGAAUCUGCGAAUUCUGCUGUAUAUCUC, 0.19.
As for UAACAGGGGCCCACAGCAGAAGCGUUCACGUCGCAGCCCCAGUCAGAUUCUGGUGAAUCUGCGAAUUCUGCUGUAUAUCUC, the figure is 0.33.
With UAACAGGGGGCCACAGGAGAAGCGUUCACGUCGCAGCCCCUGUCAGAUUCUGGUGAGUCUGCGAAUUCUGCUGUAUAUCUC, the self-cleavage came out at 0.51.
